{
  "source": "paper PMC9868005",
  "about": "“Structural and functional characterization of TraI from pKM101 reveals basis for DNA processing”",
  "binders": {"B1": {"name": "F-oriT35 (structured_DNA)", "DNA": "TGTGATAGCGTGATTTATCGCGCTGCGTTAGGTGT"}, "B2": {"name": "F-Random57 (ssDNA)", "DNA": "TCCGCCATGCAGACGAGACCAGTCGGAGATTACCGAGCATTCTATCAGGTCGGCGAC"}, "B3": {"name": "oriT11 (ssDNA)", "DNA": "GCGTTAGGTGT"}, "B4": {"name": "F-oriT57 (structured_DNA)", "DNA": "TGTGATAGCGTGATTTATCGCGCTGCGTTAGGTGTATAGCAGGTTAAGGGATAAAAA"}},
  "key": {"[1]": {"target": "T1, TraI trans-esterase domain (TraI-TE) (Escherichia coli? (plasmid pKM101), UniProt D9Z5Q2 1-299)", "T1 sequence": "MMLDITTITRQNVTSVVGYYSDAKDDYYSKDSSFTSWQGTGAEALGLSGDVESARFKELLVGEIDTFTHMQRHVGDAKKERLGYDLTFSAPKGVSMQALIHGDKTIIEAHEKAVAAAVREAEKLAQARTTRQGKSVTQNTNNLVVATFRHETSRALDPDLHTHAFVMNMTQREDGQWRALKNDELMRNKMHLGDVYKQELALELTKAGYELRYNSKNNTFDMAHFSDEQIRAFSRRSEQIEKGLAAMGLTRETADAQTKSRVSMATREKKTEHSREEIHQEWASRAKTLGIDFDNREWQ", "experiment": "EMSA; over half bound at 200 nM; EMSA: 50 nM FITC-DNA, 0-1600 nM protein, 25 mM Hepes-NaOH pH 7.0, 300 mM NaCl, room temperature 15 min; 5% PAGE, 0.75x TBE, 4 C", "conditions": "protein: recombinant; tags: 10xHis with 3C site, cleaved off; label: 5' FITC; hairpin"}, "TraI full-length": {"target": "T2, TraI full-length (Escherichia coli? (plasmid pKM101), UniProt D9Z5Q2 3-1079)", "T2 sequence": "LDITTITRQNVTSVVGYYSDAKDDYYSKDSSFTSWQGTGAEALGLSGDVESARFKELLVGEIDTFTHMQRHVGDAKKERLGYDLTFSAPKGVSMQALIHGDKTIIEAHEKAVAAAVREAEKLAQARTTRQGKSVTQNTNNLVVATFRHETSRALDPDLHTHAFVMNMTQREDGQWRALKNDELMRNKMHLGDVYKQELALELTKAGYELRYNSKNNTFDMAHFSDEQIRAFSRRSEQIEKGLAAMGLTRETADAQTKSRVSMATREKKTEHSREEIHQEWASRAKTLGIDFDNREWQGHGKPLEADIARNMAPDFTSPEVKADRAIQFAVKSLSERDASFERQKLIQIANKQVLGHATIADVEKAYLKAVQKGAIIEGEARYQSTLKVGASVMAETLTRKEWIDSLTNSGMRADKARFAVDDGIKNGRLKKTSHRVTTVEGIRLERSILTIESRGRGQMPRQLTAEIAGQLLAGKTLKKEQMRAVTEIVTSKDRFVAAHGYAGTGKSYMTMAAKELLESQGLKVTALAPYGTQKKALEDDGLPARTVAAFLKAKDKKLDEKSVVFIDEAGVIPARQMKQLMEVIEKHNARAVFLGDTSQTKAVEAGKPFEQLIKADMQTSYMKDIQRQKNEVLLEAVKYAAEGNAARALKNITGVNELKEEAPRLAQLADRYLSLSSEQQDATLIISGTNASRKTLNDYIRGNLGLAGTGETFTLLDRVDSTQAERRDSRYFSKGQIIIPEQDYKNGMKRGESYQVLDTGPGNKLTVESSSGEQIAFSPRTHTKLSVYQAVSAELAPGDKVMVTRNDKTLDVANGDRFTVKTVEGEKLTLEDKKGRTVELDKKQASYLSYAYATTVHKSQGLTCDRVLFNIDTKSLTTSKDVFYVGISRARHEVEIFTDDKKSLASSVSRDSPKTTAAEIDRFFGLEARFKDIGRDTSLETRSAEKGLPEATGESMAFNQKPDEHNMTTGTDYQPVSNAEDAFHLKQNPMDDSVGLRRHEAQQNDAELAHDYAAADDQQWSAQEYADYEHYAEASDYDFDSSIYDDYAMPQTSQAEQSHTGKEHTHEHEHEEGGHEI", "experiment": "EMSA; complete shift at 200 nM and above; high shift from 50 nM; EMSA: 50 nM FITC-DNA, 0-1600 nM protein, 25 mM Hepes-NaOH pH 7.0, 300 mM NaCl, room temperature 15 min; 5% PAGE, 0.75x TBE, 4 C", "conditions": "protein: recombinant; tags: 10xHis with 3C site, cleaved off; label: 5' FITC; hairpin"}, "[2]": {"target": "T1, TraI trans-esterase domain (TraI-TE)", "experiment": "EMSA; interaction only seen above 800 nM; EMSA: 50 nM FITC-DNA, 0-1600 nM protein, 25 mM Hepes-NaOH pH 7.0, 300 mM NaCl, room temperature 15 min; 5% PAGE, 0.75x TBE, 4 C", "conditions": "protein: recombinant; tags: 10xHis with 3C site, cleaved off; label: 5' FITC"}, "[3]": {"target": "T1, TraI trans-esterase domain (TraI-TE)", "experiment": "X-ray crystallography 2.1 A; divalent cation modeled as Mn2+ (identity uncertain); 10 of 11 bases modeled; EMSA: 50 nM FITC-DNA, 0-1600 nM protein, 25 mM Hepes-NaOH pH 7.0, 300 mM NaCl, room temperature 15 min; 5% PAGE, 0.75x TBE, 4 C", "conditions": "protein: recombinant; tags: 10xHis with 3C site, cleaved off; U-turn in complex"}, "[4]": {"target": "T1, TraI trans-esterase domain (TraI-TE)", "experiment": "EMSA; apparent Kd, half-shift point; EMSA: 50 nM FITC-DNA, 0-1600 nM protein, 25 mM Hepes-NaOH pH 7.0, 300 mM NaCl, room temperature 15 min; 5% PAGE, 0.75x TBE, 4 C", "conditions": "protein: recombinant; tags: 10xHis with 3C site, cleaved off; label: 5' FITC; hairpin"}},
  "data": [
    {"binder": "B1", "values": [
      {"measurement": "apparent K (half saturation)", "setting": "[1]", "result": "< 200", "unit": "nM"},
      {"measurement": "apparent K (half saturation)", "setting": "TraI full-length", "result": "< 200", "unit": "nM"}
    ]},
    {"binder": "B2", "values": [
      {"measurement": "apparent K (half saturation)", "setting": "[2]", "result": "> 800", "unit": "nM"}
    ]},
    {"binder": "B3", "values": [
      {"measurement": "binding result", "setting": "[3]", "result": "binds"}
    ]},
    {"binder": "B4", "values": [
      {"measurement": "Kd", "setting": "[4]", "result": "< 200", "unit": "nM"},
      {"measurement": "apparent K (half saturation)", "setting": "TraI full-length", "result": "< 200", "unit": "nM"}
    ]}
  ]
}
